Results: patent US20230322953A1 (HARBOUR BIOMED SHANGHAI, published 2023)

T1: human BCMA on NCI-H929 cells (ATCC, CRL-9068) (human, UniProt Q02223 1-184)
T1 sequence (looked up): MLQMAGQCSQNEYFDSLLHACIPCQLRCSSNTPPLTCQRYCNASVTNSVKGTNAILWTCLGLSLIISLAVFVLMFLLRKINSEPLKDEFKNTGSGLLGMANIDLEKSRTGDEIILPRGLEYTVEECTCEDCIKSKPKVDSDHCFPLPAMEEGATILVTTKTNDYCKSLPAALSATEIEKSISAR

T2: biotinylated human BCMA-Fc, Avitag recombinant protein (ACRO Biosystems, #BC7-H82F0) (human, UniProt Q02223 1-54, biotinylated (Avitag))
T2 construct: extracellular domain; Bought protein; also called huBCMA.Fc; recombinant human BCMA-ECD-Fc
T2 sequence (looked up): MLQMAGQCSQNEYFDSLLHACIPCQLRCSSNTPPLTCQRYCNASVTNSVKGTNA

T3: human BCMA (human, UniProt Q02223 1-184)
T3 construct: whole, on cells; the cell line is named under assay; also called TNFRSF17; CD269
T3 sequence (looked up): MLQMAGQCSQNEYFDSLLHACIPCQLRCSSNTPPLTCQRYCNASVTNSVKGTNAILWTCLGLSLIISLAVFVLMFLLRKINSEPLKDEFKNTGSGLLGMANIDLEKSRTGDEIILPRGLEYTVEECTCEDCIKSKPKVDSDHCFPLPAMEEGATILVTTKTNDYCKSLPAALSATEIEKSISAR

T4: biotinylated human BCMA-Fc, Avitag recombinant protein (ACRO Biosystems, #BC7-H82F0) (human, UniProt Q02223 1-54, biotinylated)
T4 construct: extracellular domain; Bought protein; also called human BCMA protein; recombinant human BCMA-ECD-Fc; not shown: Fc of the bought fusion protein; Avitag
T4 sequence (looked up): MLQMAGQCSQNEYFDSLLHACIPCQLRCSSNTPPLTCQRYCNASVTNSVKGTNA


Key:
[1] = target: T1, human BCMA on NCI-H929 cells (ATCC, …); assay: cell-based or functional assay
[2] = target: T1, human BCMA on NCI-H929 cells (ATCC, …); assay: cell-based or functional assay; remark: listed apart in the source
[3] = target: T1, human BCMA on NCI-H929 cells (ATCC, …); assay: cell-based or functional assay; remark: listed apart in the source
[4] = target: T5, cynomolgus monkey CD3 (TCR/CD3 complex) on cynomolgus monkey T cells (cynomolgus monkey); assay: flow cytometry (FACS) on cynomolgus monkey T cells
T5 construct: whole, on cells
T5 sequence (Q95LI5 22-198, one chain of several): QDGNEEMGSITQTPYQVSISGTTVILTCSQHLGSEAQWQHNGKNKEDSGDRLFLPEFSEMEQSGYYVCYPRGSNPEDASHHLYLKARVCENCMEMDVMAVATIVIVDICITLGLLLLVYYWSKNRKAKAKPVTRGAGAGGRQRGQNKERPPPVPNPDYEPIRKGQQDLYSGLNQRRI

[5] = target: T6, human CD3 (TCR/CD3 complex) on human T cells (human, UniProt P07766 23-207); assay: flow cytometry (FACS) on human T cells, Experiment 1
T6 construct: whole, on cells
T6 sequence (P07766 23-207, one chain of several): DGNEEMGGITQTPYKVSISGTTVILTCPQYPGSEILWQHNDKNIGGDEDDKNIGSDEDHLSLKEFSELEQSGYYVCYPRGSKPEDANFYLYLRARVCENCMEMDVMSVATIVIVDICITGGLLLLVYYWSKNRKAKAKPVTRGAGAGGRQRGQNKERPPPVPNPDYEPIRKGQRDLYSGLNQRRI

[6] = target: T6, human CD3 (TCR/CD3 complex) on human T …; assay: flow cytometry (FACS) on human T cells, Experiment 3
[7] = target: T7, cynomolgus monkey BCMA (ACRO Biosystems, #BCA-C82F4) (cynomolgus monkey, UniProt A0A2K5UD97 1-53); assay: BLI (Octet Red96e), cyBCMA.Fc on SA sensor, 1:1 global fitting
T7 construct: Bought protein; also called cyBCMA.Fc
T7 sequence (A0A2K5UD97 entry or part of it): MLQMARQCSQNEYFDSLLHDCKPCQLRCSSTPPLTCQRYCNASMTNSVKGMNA

[8] = target: T7, cynomolgus monkey BCMA (ACRO …); assay: BLI; KD for cynomolgus monkey BCMA divided by KD for human BCMA
[9] = target: T2, biotinylated human BCMA-Fc, Avitag …; assay: BLI (Octet Red96e), biotinylated BCMA-Fc on SA sensor, 1:1 global fitting;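 further: Anti-BCMA antibodies analysed as binding partners of the captured BCMA antigen, with reference signals removed by double referencing before kinetic fitting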
human BCMA [10] = target: T3, human BCMA; assay: flow cytometry, NCI-H929 cells
human BCMA [11] = target: T3, human BCMA; assay: flow cytometry, HEK293T/hBCMA cells
cynomolgus monkey BCMA = target: T8, cynomolgus monkey BCMA (cynomolgus monkey); assay: flow cytometry, HEK293T/cyno BCMA cells
T8 construct: whole, on cells; also called cyno BCMA; HEK293T/cyno BCMA cells

[12] = target: T4, biotinylated human BCMA-Fc, Avitag …; assay: BLI (Octet Red96e), biotinylated BCMA-Fc on SA sensor, antibody in solution, 1:1 global fit

| Binder | IFN-γ release, EC50 [1] [nM] | IFN-γ release, Maximum [1] [pg/mL] | IL-2 release, EC50 [1] [nM] | IL-2 release, Maximum [1] [pg/mL] | IL-6 release, EC50 [1] [nM] | IL-6 release, Maximum [1] [pg/mL] | IL-10 release, EC50 [1] [nM] | IL-10 release, Maximum [1] [pg/mL] | NCI-H929 killing, EC50 [1] [nM] | NCI-H929 killing, Maximum killing rate % [1] [%] | TNF-α release, EC50 [1] [nM] | TNF-α release, Maximum [1] [pg/mL] | Killing EC50 (nM), T cell + NCI-H929, + 10 ng/mL sAPRIL [2] [nM] | Killing EC50 (nM), T cell + NCI-H929, + 10 ng/mL sBAFF [2] [nM] | Killing EC50 (nM), T cell + NCI-H929, + 100 ng/mL sAPRIL [2] [nM] | Killing EC50 (nM), T cell + NCI-H929, + 100 ng/mL sBAFF [2] [nM] | Killing EC50 (nM), T cell + NCI-H929, no soluble ligand [2] [nM] | Killing EC50 (nM), T cell + NCI-H929, + 125 ng/mL sBCMA [3] [nM] | Killing EC50 (nM), T cell + NCI-H929, + 250 ng/mL sBCMA [3] [nM] | Killing EC50 (nM), T cell + NCI-H929, no sBCMA [3] [nM] | other results |
| --- | --- | --- | --- | --- | --- | --- | --- | --- | --- | --- | --- | --- | --- | --- | --- | --- | --- | --- | --- | --- | --- |
| PR001990 (bispecific antibody, human IgG1, lambda, L234A L235A) light: QAVVTQEPSLTVSPGGTVTLTCRSSTGAVTTSNYANWVQQKPGQAPRGLIGGTNKRAPWTPARFSGSLLGDKAALTLLGAQPEDEAEYFCALWYSNLWVFGGGTKLTVLGQPKAAPSVTLFPPSSEELQANKATLVCLISDFYPGAVTVAWKADSSPVKAGVETTTPSKQSNNKYAASSYLSLTPEQWKSHRSYSCQVTHEGSTVEKTVAPTECS heavy: EVQLLESGGGLVQPGGSLRLSCAASGFTFNTYAMNWVRQAPGKGLEWVSRIRSKYNNYATYYADSVKDRFTISRDDSKSTLYLQMNSLRAEDTAVYYCVRHGNFGNSYVSWFAYWGQGTLVTVSSASTKGPSVFPLAPSSKSTSGGTAALGCLVKDYFPEPVTVSWNSGALTSGVHTFPAVLQSSGLYSLSSVVTVPSSSLGTQTYICNVNHKPSNTKVDKKVEPKSCDKTHTCPPCPAPEAAGGPSVFLFPPKPKDTLMISRTPEVTCVVVDVSHEDPEVKFNWYVDGVEVHNAKTKPREEQYNSTYRVVSVLTVLHQDWLNGKEYKCKVSNKALGAPIEKTISKAKGQPREPQVYTLPPCREEMTKNQVSLWCLVKGFYPSDIAVEWESNGQPENNYKTTPPVLDSDGSFFLYSKLTVDKSRWQQGNVFSCSVMHEALHNHYTQKSLSLSPGK EVQLVETGGGLIQPGGSLRLSCAASGFTVSDNYMTWVRQAPGKGLEWVSVIFSGGNTYYADSVKGRFTISRDNAKNTLYLQMNSLRAEDTALYYCARRNYDDTRGTDVFDIWGQGTMVTVSSASEPKSSDKTHTCPPCPAPEAAGGPSVFLFPPKPKDTLMISRTPEVTCVVVDVSHEDPEVKFNWYVDGVEVHNAKTKPREEQYNSTYRVVSVLTVLHQDWLNGKEYKCKVSNKALGAPIEKTISKAKGQPREPQVCTLPPSREEMTKNQVSLSCAVKGFYPSDIAVEWESNGQPENNYKTTPPVLDSDGSFFLVSKLTVDKSRWQQGNVFSCSVMHEALHNHYTQKSLSLSPGK | 1.36 | 1230 | 5.29 | 185 | 8.2 | 273 | 1.96 | 777 | 0.59 | 61.4 | 5.49 | 1200 | 0.0879 | 0.0787 | 0.154 | 0.094 | 0.0733 | 0.234 | 0.387 | 0.0787 | Killing EC50 (nM), T cell + NCI-H929, + 62.5 ng/ml sBCMA [3]: 0.176 nM; Killing EC50 (nM), T cell + NCI-H929, + 500 ng/mL sBCMA [3]: 0.546 nM; Maximum MFI [4]: 15600 MFI; Maximum MFI [5]: 5450 MFI; Maximum MFI [6]: 350000 MFI; Kd [7]: 3.35 nM; koff [7]: 0.0025 s⁻¹; kon [7]: 746000 M⁻¹ s⁻¹; KD ratio (cy BCMA/hu BCMA) [8]: 1.72; Kd [9]: 1.95 nM; koff [9]: 0.000629 s⁻¹; kon [9]: 322000 M⁻¹ s⁻¹ |
| PR002309 (bispecific antibody, human IgG1, lambda, L234A L235A) light: QAVVTQEPSLTVSPGGTVTLTCRSSTGAVTTSNYANWVQQKPGQAPRGLIGGTNKRAPWTPARFSGSLLGDKAALTLLGAQPEDEAEYFCALWYSNLWVFGGGTKLTVLGQPKAAPSVTLFPPSSEELQANKATLVCLISDFYPGAVTVAWKADSSPVKAGVETTTPSKQSNNKYAASSYLSLTPEQWKSHRSYSCQVTHEGSTVEKTVAPTECS heavy: EVQLLESGGGLVQPGGSLRLSCAASGFTFSTYAMNWVRQAPGKGLEWVSRIRSKYNNYATYYADSVKDRFTISRDDSKSTLYLQMNSLRAEDTAVYYCVRHGNFGNSYVSWFAYWGQGTLVTVSSASTKGPSVFPLAPSSKSTSGGTAALGCLVKDYFPEPVTVSWNSGALTSGVHTFPAVLQSSGLYSLSSVVTVPSSSLGTQTYICNVNHKPSNTKVDKKVEPKSCDKTHTCPPCPAPEAAGGPSVFLFPPKPKDTLMISRTPEVTCVVVDVSHEDPEVKFNWYVDGVEVHNAKTKPREEQYNSTYRVVSVLTVLHQDWLNGKEYKCKVSNKALGAPIEKTISKAKGQPREPQVYTLPPCREEMTKNQVSLWCLVKGFYPSDIAVEWESNGQPENNYKTTPPVLDSDGSFFLYSKLTVDKSRWQQGNVFSCSVMHEALHNHYTQKSLSLSPGK EVQLVETGGGLIQPGGSLRLSCAASGFTVSDNYMTWVRQAPGKGLEWVSVIFSGGNTYYADSVKGRFTISRDNAKNTLYLQMNSLRAEDTALYYCARRNYDDTRGTDVFDIWGQGTMVTVSSRTGGGGSGGGGSGGGGSKLEVQLVETGGGLIQPGGSLRLSCAASGFTVSDNYMTWVRQAPGKGLEWVSVIFSGGNTYYADSVKGRFTISRDNAKNTLYLQMNSLRAEDTALYYCARRNYDDTRGTDVFDIWGQGTMVTVSSASEPKSSDKTHTCPPCPAPEAAGGPSVFLFPPKPKDTLMISRTPEVTCVVVDVSHEDPEVKFNWYVDGVEVHNAKTKPREEQYNSTYRVVSVLTVLHQDWLNGKEYKCKVSNKALGAPIEKTISKAKGQPREPQVCTLPPSREEMTKNQVSLSCAVKGFYPSDIAVEWESNGQPENNYKTTPPVLDSDGSFFLVSKLTVDKSRWQQGNVFSCSVMHEALHNHYTQKSLSLSPGK | 0.0194 | 1950 | 0.0375 | 222 | 0.195 | 209 | 0.0298 | 1050 | 0.00772 | 69.5 | 0.0445 | 1300 | 0.000538 | 0.000447 | 0.000991 | 0.000474 | 0.000439 | 0.00347 | 0.005 | 0.000393 | Killing EC50 (nM), T cell + NCI-H929, + 62.5 ng/mL sBCMA [3]: 0.00296 nM; Killing EC50 (nM), T cell + NCI-H929, + 500 ng/ml sBCMA [3]: 0.0088 nM; Maximum MFI [4]: 11700 MFI; Maximum MFI [6]: 317000 MFI; Kd [7]: 0.141 nM; koff [7]: 0.000116 s⁻¹; kon [7]: 823000 M⁻¹ s⁻¹; KD ratio (cy BCMA/hu BCMA) [8]: 3.16; Kd [9]: 0.0448 nM; koff [9]: 1.89e-05 s⁻¹; kon [9]: 422000 M⁻¹ s⁻¹ |
| PR001035, anti-BCMA HCAb antibody, clone 1005P36F3 (antibody, human IgG1, V domains shown, Heavy-chain-only antibody (HCAb), human IgG1 Fc, no light chain) VH: EVQLVETGGGLIQPGGSLRLSCAASGFTVSSNYMTWVRQAPGKGLEWVSVIFSGGSTYYADSVKGRFTISRDNSKNTLYLQMNSLRAEDTAVYYCARRIAVAGHDVFDIWGQGTMVTVSS |  |  |  |  |  |  |  |  |  |  |  |  |  |  |  |  |  |  |  |  | EC50 (human BCMA [10]): 1.19 nM; Maximum MFI (human BCMA [10]): 113000; EC50 (human BCMA [11]): 0.336 nM; Maximum MFI (human BCMA [11]): 39800; Maximum MFI (cynomolgus monkey BCMA): 10800; Kd [12]: 0.276 nM; koff [12]: 8.98e-05 s⁻¹; kon [12]: 325000 M⁻¹ s⁻¹ |
